Experimental data published in PMC12427885 (Foods, 2025).

Assays:
[1] = molecular target: T1, DAO-GH (Glutamicibacter halophytocola, UniProt Z9MBQ1XXX8); assay: DA-67/horseradish peroxidase coupled H2O2 assay, […] nm; Michaelis-Menten nonlinear regression; assay type: biochemical; details: substrate inhibition by tyramine; second site; 25 mM potassium phosphate pH 6.8, 37 °C; partially purified enzyme
T1 construct: gene from G. halophytocola isolate, codon-optimized, intracellular expression in Komagataella phaffii; partially purified (PEI, ammonium sulfate, HIC)
T1 sequence (Z9MBQ1XXX8 1-653): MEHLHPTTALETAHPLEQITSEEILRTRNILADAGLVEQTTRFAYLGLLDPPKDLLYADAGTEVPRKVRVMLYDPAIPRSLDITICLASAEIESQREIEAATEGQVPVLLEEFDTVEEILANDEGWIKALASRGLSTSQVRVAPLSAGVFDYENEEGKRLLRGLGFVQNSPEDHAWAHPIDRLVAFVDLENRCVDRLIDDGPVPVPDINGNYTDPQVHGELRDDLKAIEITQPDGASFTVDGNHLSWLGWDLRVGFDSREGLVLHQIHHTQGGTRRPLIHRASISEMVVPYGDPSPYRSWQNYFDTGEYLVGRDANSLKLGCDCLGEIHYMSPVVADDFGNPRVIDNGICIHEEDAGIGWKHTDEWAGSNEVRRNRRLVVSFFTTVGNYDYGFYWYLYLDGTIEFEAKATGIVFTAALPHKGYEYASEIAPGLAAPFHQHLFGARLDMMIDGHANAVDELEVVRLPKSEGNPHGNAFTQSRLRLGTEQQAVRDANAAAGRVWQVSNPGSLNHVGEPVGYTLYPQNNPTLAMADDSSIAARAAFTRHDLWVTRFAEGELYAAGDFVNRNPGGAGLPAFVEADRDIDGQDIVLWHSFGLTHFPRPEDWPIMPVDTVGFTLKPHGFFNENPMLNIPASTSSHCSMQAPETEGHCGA

[2] = tested on: NCCc1ccc(O)cc1; assay: purified protein; details: apparent, 25 mM potassium phosphate pH 6.8, 37 °C, 0.005-3 mM tyramine, partially purified enzyme
[3] = molecular target: diamine oxidase from Glutamicibacter halophytocola (DAO-GH) (Glutamicibacter halophytocola); assay: SEC; HiLoad 16/600 Superdex 200 prep grade; 50 mM sodium phosphate, 150 mM NaCl, pH 7; 1 mL/min; HIC-purified (partially purified) DAO-GH; fractions analysed for DAO activity; calibrated with the high molecular weight gel filtration kit; native mass compared with the monomer's mass

For NCCc1ccc(O)cc1 [tyramine], the Ki [1] was 10.4 ± 4.0 mM.

DAO-GH (Glutamicibacter halophytocola) showed a Km [2] of 9 ± 0.2 µM.

Compound “diamine oxidase from Glutamicibacter halophytocola (DAO-GH) (enzyme)” has a stoichiometry N [3] of 2.
